According to patent publication US7732563B2, “Cloning, sequencing and expression of a gene encoding an eukaryotic amino acid racemase, and diagnostic, therapeutic, and vaccination applications of parasite and viral mitogens” (priority 1999, dated 2010):

What was measured:
Trypanosoma cruzi = assay: rTcPA45 sub-mitogenic immunization followed by infective challenge, parasitemia; format: in vivo
Experimental: FIG. 14B. rTcPA45 injection. 6 week old BALB/c mice were injected intraperitoneally (i.p.) with 10 ηg of rTcPA45 and then boosted i.p. one week later with 50 μg of rTcPA45. Mice were challenged 1 week after the boost with 10^4 infective forms of the parasite/mouse, and the parasitemia was scored during 30 days.
As with classical B cell mitogens, rTcPA45 mitogenicity is dose-dependent (FIG. 1). As for classical B cell mitogens, mouse specific immune responses directed to mitogenic rTcPA45 is indeed possible (Western blot FIG. 12) following a protocol of immunization which consisted of with 1 injection (i.p.) of a sub-mitogenic (10 ng/mouse) dose of the protein followed by an additional boost with a mitogenic dose of rTcPA45 (50 μg/mouse) one week later.
These additional results do support the claim that mitogenic moieties are potential targets for vaccination approaches against Trypanosoma cruzi infection. (See FIG. 14(b).)

[1] = system: spleen cells / Ig-producing B cells; assay: Mitogenicity of rTcPA45 in vivo assessed by ELISPOT; set-up: species or system mouse
Experimental: BALB/c mice were injected or not with 50 μg of rTcPA45 (i.p.), and spleen cells assayed day 7 after injection. Results represent total numbers of spleen cells, total number of B cells producing IgM, IgG2a, or IgG2b isotypes, and total numbers of isotype-producing B cells specific of the protein.
Mice were injected or not with 50 μg of iTcPA45 (i.p.). […] Numbers of Ig-secreting cells (total or specific to rTcPA45) were determined by Elispot assay, as follows:
Flat bottomed 96 well ELISA plates, were coated with either goat anti-mouse Ig or with rTcPA45 and incubated at 4° C. overnight. Plates were blocked with PBS-gelatin, washed with PBS-Tween and with RPMI medium. 100 μl of different spleen cell concentrations per well (in RPMI containing 2% FCS) were incubated for 8 hours at 37° C., 5% CO2. A row in the plate containing serial dilutions of purified immunoglobulin (IgM, IgG2a, or IgG2b) was used as standard. After lysis of the cells with H20-Tween, plates were then washed with PBS-Tween and incubated with respective biotin-labeled antibodies directed to (IgM, IgG2b, or IgG2a isotypes), overnight at 4EC. After washing, plates were incubated for 45-60 minutes with avidin-alkaline phosphatase and further incubated with substrate (2-amino-2-methyl-propanol buffer containing BCIP) 2-4 hours, 37° C. (until the spots are “dark” blue). Spots correspond to immunoglobulin-producing B-cell (of a particular isotype) directed to the coated antigen (here: goat anti-mouse immunoglobulins or rTcPA45). Spots are then counted and numbers corrected to total number of spleen cells according to the dilution. (See Table I and FIG. 7.)

rTcPA45 proline racemase = target: T1, rTcPA45 proline racemase (Trypanosoma cruzi, UniProt Q4DA80); format: biochemical
T1 construct: made in house; host or cells: E. coli (pET28b(+))
Experimental: To investigate the genomic organization and transcription of the Tc45 gene, Southern and Northern blot analyses were done. FIG. 4 depicts the results of characterization of rTcPA45 activities. FIG. 4, part a, is an 8% SDS-PAGE gel of rTcPA45 (Coomasie blue staining). Part b depicts the proliferative activity of total splenocytes (5×10^4 cells/well) in the presence of increasing concentrations of rTcPA45 (μg/ml). […] Reaction conditions were: 0.2 M Na-acetate/25 mM β-mercaptoethanol buffer, pH6, rTcPA45 (3 μg/ml), 30 min incubation at 37° C. in 500 μl. The reaction was stopped by incubating for 10 min at 80° C. […] Reactions were carried out for 30 min at 37° C. and stopped for 5 min at 80° C. All reagents and inhibitors were purchased from Sigma. The shift in optical rotation was measured in a Polarimeter 241 MC (Perkin Elmer).
3 μg of rTcPA45 was diluted in 500 μl of buffer (0.2M NaOAc, […] β-mercaptoethanol, pH6.0) containing different concentrations of the substrate (10-80 mM or L- or D-proline). (See FIG. 4c.) The reaction was incubated for 30-60 minutes at 37° C. in a water bath, followed by heat inactivation of the enzyme for 10 minutes at 80° C. Each sample is diluted to 1.5 ml with water and the mixture submitted to measurement of optical rotation using a polarimeter, at 365 nm. A sample without enzyme is used as a control. For optimal pH determination, buffer systems with NaOAc, phosphate, and Tris were used with pH ranging from 4.0-8.2. Curve of temperature was performed between 27° C. to 47° C.
The percent of racemization of different concentrations of L-proline, D-proline, L-hydroxy-proline and D-hydroxy-proline substrates was calculated by incubating a 500-μl mixture of 3 μg TcPA45 and 10-80 mM substrate in 0.2 M sodium acetate and 25 mM β-mercaptoethanol, pH 6, for 30 min at 37° C. The reaction was stopped by incubation for 10 min at 80° C. Water (1 ml) was then added, and the optical rotation was measured in polarimeter 241 MC (Perkin Elmer, Montignyle Bretonneux, France) at a wavelength of 365 nm, in a cell with a path length of 10 cm. The percent inhibition of racemization of 80 mM L-proline was determined in the presence of different concentrations of several specific and nonspecific inhibitors ranging in concentration from 6 mM to 100 mM. The percent racemization of 80 mM L-proline as a function of pH was determined using 0.2 M sodium acetate, potassium phosphate and Tris-HCl buffers containing 25 mM β-mercaptoethanol; reactions were incubated for 30 min at 37° C. as described above. All reagents and inhibitors were purchased from Sigma.

[2] = BALB/c mice, 50 μg/mouse i.p., 7 days after injection
[3] = pH 6, 3 μg rTcPA45, 30 min at 37° C.

B1: rTcPA45: recombinant T. cruzi polyclonal activator 45, B-cell mitogen and proline racemase, codons 30-423 with C-terminal 6×His tag, from E. coli (protein)
chain: RTGQEKLLFDQKYKIIKGEKKEKKKNQRANRREHQQKREIMRFKKSFTCIDMHTEGEAARIVTSGLPHIPGSNMAEKKAYLQENMDYLRRGIMLEPRGHDDMFGAFLFDPIEEGADLGMVFMDTGGYLNMCGHNSIAAVTAAVETGIVSVPAKATNVPVVLDTPAGLVRGTAHLQSGTESEVSNASIINVPSFLYQQDVVVVLPKPYGEVRVDIAFGGNFFAIVPAEQLGIDISVQNLSRLQEAGELLRTEINRSVKVQHPQLPHINTVDCVEIYGPPTNPEANYKNVVIFGNRQADRSPCGTGTSAKMATLYAKGQLRIGETFVYESILGSLFQGRVLGEERIPGVKVPVTKDAEEGMLVVTAEITGKAFIMGFNTMLFDPTDPFKNGFTLKQ
modifications: left off: small tags and cut ends
Trypanosoma cruzi; BALB/c mice, 10 ng i.p. then boost 50 μg i.p. one week later, challenge 10^4 parasites/mouse
  parasitemia control: 90-95%
Trypanosoma cruzi; sub-mitogenic doses of active rTcPA45 intraperitoneally 2 weeks before infective challenge
  parasitemia control compared with DNA vaccination (85% decrease): even higher levels of parasitemia control
[1]; 50 μg rTcPA45 i.p., day 7
  Ig-secreting B cells directed to TcPA45: complete lack
  IgM secreting cells directed to the injected protein: less than 0.5%
  increase in total numbers of Ig-secreting B cells (IgM, IgG2a, IgG2b isotypes): 3-6 fold
  increase in total spleen cell numbers: 2 fold
[1]; 50 μg rTcPA45 in vivo, by day 4
  increase in spleen cell numbers: 2 fold
[1]; 50 μg rTcPA45 in vivo, day 4
  rTcPA45-specific Ig-secreting B cells: complete lack
[1]; [2]
  Total Number of Ig-producing B cells ANTI-rTc45MIT: IgG2a-B cells anti 45: none
  Total Number of Ig-producing B cells ANTI-rTc45MIT: IgG2b-B cells anti 45: none
  Total Number of Ig-producing B cells ANTI-rTc45MIT: IgM-B cells anti 45: 84
  Total Number of Ig-producing B cells: IgG2a-producing cells: 9866 ± 3000
  Total Number of Ig-producing B cells: IgG2b-producing cells: 14633 ± 3287
  Total Number of Ig-producing B cells: IgM-producing cells: 371666 ± 94495
rTcPA45 proline racemase; 80 mM L-proline, buffers pH 4.0-8.2
  pH of maximal proline racemase activity: 6
rTcPA45 proline racemase; 10 min heating at 80° C.
  enzyme stability to heating: inactivated
rTcPA45 proline racemase; [3]
  racemisation of L- and D-proline substrates: racemises
  racemisation of L- or D-hydroxy-proline and other natural L-amino acids: not
rTcPA45 proline racemase; tested between 27° C. and 47° C.
  optimal temperature for enzymatic activity: 37 °C
